Here are results for 23 sequences from the DeepSol protein solubility set.

The nature of the series: soluble on expression in E. coli; label from the status in PepcDB or PDB records.
With “MESPSALPSLDQLLKEQGADQTLTDLILAILDRCGKIASALQGTSVDKVGSVNEFGDEQLTVDVIAENLLRSWAQSSEGSAVRAVCSEEDIHLQECHKNGEFILCWDPLDGSSIIDCNWAVGSIVSIWRIGHHGVQWQGADTLIQKTGRQQVASLIVVYGPRTTGVVAVNVDAGGIVKEGTALDLEMKDNGKFICRGKPIIKPQAKIFSPANLRAAQDLPAYKQLIEFWMEKRYTLRYTGGLVPDVYQIFVKQQGVFCNPASKAAPAKLRMCFEVLAIALVVEAAGGRTSNGQKSLLDVAIEHMDHRSALCCGSADEIKRMEETFAALSG”, the “soluble on expression in E. coli” value is recorded as “soluble”.

As for “MVMKLIKRSLLLLGAVLLITLPAYSQNDDIFEDDIYTSRKEIRKQNQVKDWQNQEDGYGDDTEYTVASDRDIDAYNRRDGQSYDGKKLSKDKKRDSTRSSVPGRYSRRLARFYKPNTIVISGADNVYVTDDGEYFVYGDEYYDDASSVNIYINSPWCDPFPYTSWYPSFSGWYNYTWNYPWFYYGSHIGWGGYYPGYNWYWSYYYDPFYNPYGIGMGWGYPYGWGSYYGWGGYPGVIHHYHHYPKKTYSNGQHSGAYYSYGRPNRIKGGTSGAKLGTGRYDRIQNSSSQKNKFGLQSNKPNNNLQNVKSGRTGRANRDRNIETVTPNNGQKQNRPVFQQNQSGNDRPTGRNIRSERQGENNDRTFSTPSRSNSNGGFSTPSRSSSGSMSGGGGRSGRGRN”, the “soluble on expression in E. coli” value is recorded as “not soluble”.

Regarding “KDIYASMETARREGKSFNTWKKGLVDEMERKGWVAGRDKKLGRGLDGTLLADPKTGEYFGTPRRLNTIYRVNMQAAYSGARYQRMMDNVDNRPYWKYSAVSDSRTRPAHLALNGRVYRYDAPFWATFYPPNGFNCRCTVI”, the “soluble on expression in E. coli” value is recorded as “not soluble”.

In the case of “MGSDKIHHHHHHMGNSVLKMMIDAGPIMRTVSLPRGRHSLHTMPTSTGYEVRSDATYDWDGRKRGQTPFTVLQHTISGAGNLRYENSTYRVTPGQTLLVLVPHNHRYWLEPGGRWEFFWISMNGEEALRIHNAILTAMGPIFNLNQQTVEHLADCSQRLIAGGAETPGRASAIAYEAAMALYDDVFGSHPTLSAEYRTMQHVIDHISANLDQSLSVEQLAAVSGLSRAHFSRVFAASEGMPPAEFVLHKRLKRAVKLLTKGSHLSVKEISTMCGFEEPNYFSKVFRRHFGASPTEFRTTGMYSSILQGGVEAETKPARFHRPDVNE”, the “soluble on expression in E. coli” value is reported as “not soluble”.

As for “MGSDKIHHHHHHMLDNRIIDELKTIVGADNVATDRQDLICYGYDATQMEFLPDAVVHPGSPDEVSAVLKLANREQFPVYPRGAGSGFTGGALPKGGGIVLVVTRLNRILRIDTENLIAEVEPGVVTEQFQLEVEKLGLFYPPDPASLKFSTLGGNVAENAGGPRCVKYGVTRDFVMGLEVVLPSGEIIRTGGETYKGVVGYDLTRLLCGSEGTLGVITKIIFKLLPLPEAKKTMMTIFDSIDGAAKAVSTIIGNKIIPTTLEFMDHATLQCVEKRFNLGIPASGRAVLIIEVDGDRDLIEKQAARIQELIKPLGLVECKIAKDAAESEALWKVRRLVSPSLRDVNPDKFNEDIVVPRSKVPDVIRVIEKIQQKYAIPIVNFGHAGDGNIHVNIMIDKSVAGQEEKAHEAIAEVFQAALDLNGTMSGEHGVGLAKQPYIHLELKPAQVATMQAIKKALDPNNILNPGKMFPV”, the “soluble on expression in E. coli” value is on record as “not soluble”.

Turning to “SNAIGLIITALPEPYWIVLHDRIVNVISSSSLTSETEWVGYPFRLFDFTACHQSYSEMSCSYTLALAHAVWHHSSIGQLSLIPKFLTEALLPVVKTEFQLLYVYHLVGPFLQRFQQERTRCMIEIGVAFYDMLLNVDQCSTHLNYMDPICDFLYHMKYMFTGDSVKEQVEKIICNLKPALKLRLRFITHISKMEPAVPPQALNSGSPAPQSNQVPASLPVTQ”, the “soluble on expression in E. coli” value is recorded as “soluble”.

Consider “MRVEIVPIRPEFDAEICQIIQSVGAEFGAIGEGFGPSDAEVLAMSQYYREQDRSAYFVALLEGKVVGGGGIAPFAGHTDLCELKKLFLLPTSRGHGVGRALSEHCLNFAKQQGYTKCYLDTLSSMTQAIKLYQQLGFEHLTQPMAGTEHNGCDVWMLKSLN”, for which the “soluble on expression in E. coli” value is recorded as “not soluble”.

For the sequence “MVSFVNCRSQIKTNMQEQNNPLLCNPESGFCEMPSIKPDTAHQADLKSDKKPVKVIYYTDPICSSCWGIEPQLRKLKLEYGTSIDIEYRMGGLLPDWSYNSGGISKPSDVAHHWDEVSVYYDMPIDGGVWLEDPLPSSYPPSIAFKAVQIQSTERAILFLREIREMVFLQKKNIAKWEHLEQAAKNTGVNIEQFKKDYEGRAKDLFYADLKLARDLGVHGFPTMIFSDSTGKNETVYGYKPYAVFENTIAGLYPSVQKYTYDKSIAAVFSTFHSLTAKEFSELTGVARNQSEQMLDEYVKQGMLQKWTTKNGSLWSLKK”, the “soluble on expression in E. coli” value was “not soluble”.

As for “GGQIVHTETTEVVLCGDPLSGFGLQLQGGIFATETLSSPPLVCFIEPDSPAERCGLLQVGDRVLSINGIATEDGTMEEANQLLRDAALAHKVVLEVEFD”, the “soluble on expression in E. coli” value was “soluble”.

As to “MEVVRIPEFKEKTAPGAYYQQPAIDGSRPGRFYANLFDIKATPKYGMRTLAYHEGIPGHHFQVAVAMELEGQPLIRKMAPFTAYIEGWALYSERVAWELGFQQDPFDNIGRLQAELFRAVRLVVDTGIHHSRWTREQAIDYMKKNTGMSDRDVTAEIERYIVMPGQATAYKVGMMKILELREKAKQALGDKFDLRDFHDVVLKNGAVPLDILEKLVDRYIADKRSQA”, the “soluble on expression in E. coli” value is listed as “not soluble”.

On to “AEVNDPRVGFVAVVTFPVDGPATQHKLVELATGGVQEWIREVPGFLSATYHASTDGTAVVNYAQWESEQAYRVNFGADPRSAELREALSSLPGLMGPPKAVFMTPRGAILPS”, for which the “soluble on expression in E. coli” value is “soluble”.

Turning to “MGSDKIHHHHHHMTPTMSNIATLDDVRYQEHILQGVSRTFALTIPQLPPALREVVGNAYLLCRIVDTVEDDSALTLEQTRELAEMFIEVVSGTVEAETFARALYPLLSEHTIPAEHDLIKHTPSVIRMTHSFNPVQRQALERCIRIMGQGMAAYQESESLSGLENLAEMDRYCYHVAGVVGEMLTELFCDYSPEINQHKPALMQLSVSFGQGLQMTNILKDIWEDRKRGACWLPRDIFLQEGFDLNDLQPGCPERGFHAGLGTLIGIAKTHLQNALAYTCLIPSHEAGVRRFCLWAIGMAVLTLNKINHKRDFITGREVKISRRSVRATVLITSLLASQDWALKKIFAISSRNLPEVQIARS”, the “soluble on expression in E. coli” value is on record as “not soluble”.

As for “MSTVLGTFKRMNEGWTQWPSYGHAFGVRLHKLRRLRGLTQDGLAEIANLSRNQISNLERNENSATKSSDPTMSTIYRLARALHVPPAALMPAVGDYVTDICQDTGHELPIDIAWPTSSQDTQKFSIQYRYRYWDEQSPLFDDEDWDDDHADDPDFGIAVMPETSDNNDADTTKGGDDTEDRGDVDKRDDDPLA”, the “soluble on expression in E. coli” value is “not soluble”.

With “MAKDVKPTRKNLMQIEDRIELSERGHDTLEKKRDGLIMEFMDILDQAQDVREDLDGSYERAQRAINMARAMEGDVAVRGAAAALKEHPELTTQSKNIMGVVVPQIESSKVRKSLDERGYGVMGTSARIDEAAEAYEELLENIILAAEVETAMKKMLEEIETTKRRVNALEFKLLPDLYDNQEYIEQKLEEQEREEIFRMKKIKAKKEEEEDALAAEEEAEEEPEAVTADDAAALEHHHHHH”, the “soluble on expression in E. coli” value is “soluble”.

As for “MMYRIRNWLVATLLLLCAQVGAATLSDIQVSNGNQQARITLSFIGDPDYAFSHQSKRTVALDIKQTGVIQGLPLLFSGNNLVKAIRSGTPKDAQTLRLVVDLTENGKTEAVKRQNGSNYTVVFTINADAPPPPPPPPVVVKRVETPTVVAPRVSEPARNPFKTESNRTTGVISSNTVTRPAARATANNGDKIIIAIDAGHGGQDPGAIGPGGTREKNVTIAIARKLRTLLNDDPMFKGVLTRDGDYFISVMGRSDVARKQNANFLVSIHADAAPNRSATGASVWVLSNRRANSEMASWLEQHEKQSELLGGAGDVLANSQSDPYLSQAVLDLQFGHSQRVGYDVATSMISQLQRIGEIHKRRPEHASLGVLRSPDIPSVLVETGFISNNSEERLLASDDYQQQLAEAIYKGLRNYFLAHPMQSAPQGATAQTASTVTTPDRTLPN”, the “soluble on expression in E. coli” value is reported as “not soluble”.

As for “MSLKFTAIDFETANEKRNSPCSIGIVVVKDGHVVEKSHHLIRPKEMRFMPINIGIHGIRPAMVEKEPEFDKVWEKIKHYFDDTLVIAHNASFDISVLRKSAELYNIELPEFNYICTMKLARNFYKGIENAKLNTVNNFLGYEFRHHDALYDALACSNIMLSISKELKCKDITEISKLLGEGHHHHHH”, the “soluble on expression in E. coli” value is “not soluble”.

“MIEFVYPHTQLVAGVDEVGRGPLVGAVVTAAVILDPARPIAGLNDSKKLSEKRRLALYEEIKEKALSWSLGRAEPHEIDELNILHATMLAMQRAVAGLHIAPEYVLIDGNRCPKLPMPAMAVVKGDSRVPEISAASILAKVTRDAEMAALDIVFPQYGFAQHKGYPTAFHLEKLAEHGATEHHRRSFGPVKRALGLAS”: the “soluble on expression in E. coli” value is on record as “soluble”.

For “PQMKTLETRSCILRPASLDDVEDFFDCYKNKIVVKHLPFSEHKSLEDTRKFIKSFFLNPYKKGKIGHFAIVYKRDNKVIGNMGFNNINPKALEAEIGICINPSYWGHDFATEITKRVIQYGFRELNLNKIIAITYEENQNSTKSLDLLGFKCTGKYIKKIHTGNTVKNVPCYQYELKKQ”, the “soluble on expression in E. coli” value is “not soluble”.

Take “MVDSRAFKLKEGREREVDMTSETEKRIIALEETIAHQAKTIEELSDQLAEQWKVVEQTRAKLDRLTERFLSLEEQSLDAPAITRPPHY”: the “soluble on expression in E. coli” value is “not soluble”.

On to “MGSDKIHHHHHHMTDSPHTIRNPAAPLAERLRPRTLDDVVGQSHLLGPGKPLRLAFESGKPHSMILWGPPGSGKTTLARLMAHAFDAEFIAISAVLSGVKDIREAIERAQITLQRTGRATLLFVDEVHRFNKAQQDAFLPHVEQGLITFIGATTENPSFEVNGALLSRAQVYALKALTDQELHQLFERARSIAMLDLEFENTAIELLIGFADGDARRLLNLLEQVQNAAETEEIIKIDADYLSRVLARNVRRFDKGGDAFYDQISALHKSIRGSSPDAALYWLCRMLDGGADPRYIGRRLVRTATEDIGLADPRALTLALNACEVFERLGSPEGELALAQATLYLACAPKSNAAYVAYKQARAFIKEDISRPVPIHLRNAPTRLMREMGHGAAYRYAHDESESYAAGENYFPDNILAVQFYRPTTHGLEAKIGEKLAYLRSLDEKTGKKRN”, for which the “soluble on expression in E. coli” value is “not soluble”.

Consider “MSDEQIDKLVSRLDGALNRLGNVKKDHPLESSSNSKPTHQPKSPAPYRQKIEKLSAEVVDSNPYSRLMALQRMGIVNEYERIREKTVAVVGVGGVGSVVAEMLTRCGIGKLILFDYDKVEIANMNRLFYQPNQAGLSKVEAARDTLIHVNPDVQIEVHNFNITTMDNFDTFVNRIRKGSLTDGKIDLVLSCVDNFEARMAVNMACNEENQIWMESGVSENAVSGHIQYIEPGKTACFACVPPLVVASGIDERTLKRDGVCAASLPTTMAVVAGFLVMNTLKYLLNFGEVSQYVGYNALSDFFPRDSIKPNPYCDDSHCLQRQKEYEEKVANQPVDLEVEVPEEETVVHEDNEWGIELVNESEPSAEQSSSLNAGTGLKFAYEPIKRDAQTELSPAQAATHDFMKSIKDKLVEEAQNKGK”, for which the “soluble on expression in E. coli” value is listed as “not soluble”.

In the case of “GKQKQYLFEARDITSRKLMEDKLYQRESSLRNYYEQQPVMMVTLDSHNRIQEVNRFAQLLLGYEPIEMLGHRLREFYLDDKALFPRQVLLQPSHQVHDVWRREIEYRHADGHSVWVRENIRPLNDSD”, the “soluble on expression in E. coli” value was “not soluble”.

For the sequence “MLKANVFCAGPVEALILDWAGTTIDFGSLAPVYAFMELFKQEGIEVTQAEAREPMGTEKSEHIRRMLGNSRIANAWLSIKGQASNEEDIKRLYDLFAPIQTRIVAQRSQLIPGWKEVFDKLIAQGIKVGGNTGYGPGMMAPALIAAKEQGYTPASTVFATDVVRGRPFPDMALKVALELEVGHVNGCIKVDDTLPGIEEGLRAGMWTVGVSCSGNEVGLDREDWQALSSDEQQSYRQHAEQRLFNAGAHYVIDSVADLETVITDVNRRLARGEKP”, the “soluble on expression in E. coli” value is on record as “soluble”.
